In assay [1] the target is T1, soluble human FcRn (human, UniProt P55899 24-297; P61769 21-119, biotinylated (Sulfo-NHS-LC-Biotin) in the ELISA; amine-coupled to CM5 chip in SPR).
T1 construct: also called shFcRn; biotinylated shFcRn
In words: SPR, pH 6. (In SPR one partner is held on a chip, and binding of the other changes the refractive index at the surface.)
Description: (§1) The following steps were performed to cross-link soluble human or cynomolgus FcRn to the dextran surface of a CM5 sensor chip (Biacore AB, Uppsala, Sweden) by an amine coupling reaction involving 1-ethyl-(3-dimethylaminopropyl)-carbodiimide hydrochloride (EDC) (Biacore AB, Uppsala, Sweden) and N-hydroxysuccinimide (NHS) (Biacore AB, Uppsala, Sweden) as recommended by Biacore (BIAapplications Handbook, version AB, section 4.2, Biacore AB, Uppsala, Sweden). […] Residual sites on the FcRn flow cell were blocked with 1 M ethanolamine hydrochloride pH 8.5 (Biacore AB, Uppsala, Sweden). A control flow cell was blocked with ethanolamine for reference subtraction. For analysis of the monomeric peptides, FcRn was coated to a final density of 4000-5000 response units (RU). For analysis of the peptide dimers, FcRn was coated to a density of 2000-2500 RU. All SPR measurements were performed using a BIACORE 3000 Instrument (Biacore AB Uppsala, Sweden). For measurements done at either pH 6 or pH 7.4, experiments were performed in 50 mM phosphate, 100 mM sodium chloride, 0.01% surfactant P20 (Biacore AB, Uppsala, Sweden).
(§2) Ten, 2-fold dilutions of the peptide were injected over the FcRn-CM5 chip at a rate of 20 μl/min for 2 min. The peptide was dissociated from the chip for 2.5 minutes with buffer. Any remaining peptide was removed from the chip with a 30 second injection of HBS-P buffer (Biacore AB, Uppsala, Sweden) at a rate of 30 μl/min. Sensorgrams were generated and analyzed using BiaEval software version 3.1 (Biacore AB, Uppsala, Sweden). The equilibrium RU observed for each injection was plotted against concentration. The equilibrium KD values were derived by analysis of the plots using the steady state affinity model included in the BiaEval software.

Assay [2] addresses T1, soluble human FcRn. Description: SPR, pH 7.4.
Description: as §1, §2
Assay [3] deals with T1, soluble human FcRn. Description: ELISA, competitor human IgG.
Description: (§3) The wells were coated with 100 μl/well of 1 μg/ml biotinylated-shFcRn in Buffer A. The plate was sealed and incubated at 37° C. for 2 hours. Afterwards, the plate washed with 200 μl/well of Buffer B (Buffer B: 100 mM MES pH 6, 150 mM NaCl, 0.5% BSA IgG-free (Jackson ImmunoResearch, West Grove, Pa.), 0.05% Tween-20). […] To allow for mixing, the plate was rocked for 2 minutes, sealed and incubated at 37° C. for 2 hours. […] The plate was covered, incubated for 30 minutes at room temperature and washed 4 times with 200 μl/well of ice-cold buffer B. SureBlue TMB substrate solution (100 μl/well, KPL, Gaithersburg, Md.) was added and the plate was allowed to incubate at room temperature until color developed, which took 5 to 10 minutes. Once color developed, 100 μl/well of TMB stop solution (KPL, Gaithersburg, Md.) was added and the absorbance was measured at 450 nm. The data was plotted as absorbance vs. peptide concentration to derive the inhibitory concentration 50% (IC₅₀) values.
Assay [4] has as its target T1, soluble human FcRn. In words: ELISA, competitor human IgG. The source holds these as a separate data set. A general note: An ELISA detects its analyte on a solid surface through an enzyme-linked reagent.
Description: as §3
In assay [5] the target is T1, soluble human FcRn. In words: SPR, pH 6. This is another data set of the same source.
Description: as §1, §2
For assay [6], the target named is T1, soluble human FcRn. Description: SPR, pH 6. The source holds these as a separate data set.
Description: as §1, §2
The target of assay [7] is T1, soluble human FcRn. In words: ELISA, competitor human IgG. This is another data set of the same source.
Description: as §3
The target of assay [8] is T1, soluble human FcRn. Description: SPR, pH 6. This is another data set of the same source.
Description: as §1, §2
For assay [9], the target named is T1, soluble human FcRn. In words: ELISA, competitor human IgG. The source holds these as a separate data set.
Description: as §3
Assay [10] addresses T1, soluble human FcRn. In words: SPR, pH 6. This is another data set of the same source.
Description: as §1, §2
Assay [11] concerns the target T1, soluble human FcRn. In words: ELISA, competitor human IgG. This is another data set of the same source.
Description: as §3

The term Kd denotes a measure of binding affinity in units of concentration. As a reminder, the IC50 is the concentration that gives 50% inhibition.

Like-named read-outs stand apart in the source and are kept apart here. Bridge positions count the residues as written; N and C are the ends. Square brackets hold non-standard residues; d marks the D form. Ends that are not written are not given here. Pen = CC(C)(S)[C@H](N)C(=O)O

T1 sequence (P55899 24-297 limits assumed, chain 1 of 2): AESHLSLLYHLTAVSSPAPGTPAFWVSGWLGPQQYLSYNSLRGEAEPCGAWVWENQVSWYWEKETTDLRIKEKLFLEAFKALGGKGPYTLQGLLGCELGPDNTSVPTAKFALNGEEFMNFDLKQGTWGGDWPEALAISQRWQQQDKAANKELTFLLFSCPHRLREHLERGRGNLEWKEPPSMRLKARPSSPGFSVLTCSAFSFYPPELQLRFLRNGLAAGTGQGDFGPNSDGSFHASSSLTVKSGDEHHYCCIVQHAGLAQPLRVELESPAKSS
T1 sequence (P61769 21-119 limits assumed, chain 2 of 2): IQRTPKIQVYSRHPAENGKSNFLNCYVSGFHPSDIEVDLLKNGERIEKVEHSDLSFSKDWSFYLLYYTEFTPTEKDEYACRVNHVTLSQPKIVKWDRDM

Take CTGHFGGLYPC-NH2 (disulfide 1-11 (inferred)) [SEQ ID NO:19]: the dissociation constant Kd was determined as 20 µM with soluble human FcRn [1] and 320 µM with soluble human FcRn [2]. This molecule registered an IC50 in the assay with soluble human FcRn [3] of 110 µM.
Molecule RFXTGHFVGLYPC (Pen at 3; D-Val at 8; Sar at 9; NMeLeu at 10; disulfide; C-terminal amide) [Peptide No. 218] came in with an IC50 with soluble human FcRn [4] above 50 µM.
With RFXTGHFNGLYPC (Pen at 3; D-Asn at 8; Sar at 9; NMeLeu at 10; disulfide; C-terminal amide) [Peptide No. 243], in the assay with soluble human FcRn [5], binding was put at a Kd of 2.1 µM. In the assay with soluble human FcRn [4], this molecule displayed an IC50 of 29 µM.
For RFXTGHFGGWYPC (Pen at 3; disulfide; C-terminal amide) [Peptide No. 237], the Kd with soluble human FcRn [6] was 0.14 µM. Besides, the IC50 with soluble human FcRn [7] stood at 2.8 µM.
In the assay with soluble human FcRn [5], RFXTGHFSGLYPC (Pen at 3; D-Ser at 8; Sar at 9; NMeLeu at 10; disulfide; C-terminal amide) [Peptide No. 241] displayed a Kd of 1.1 µM. Also, the half-inhibitory concentration (IC50) with soluble human FcRn [4] was found to be 23 µM.
The corresponding values for RFXTGHFTGLYPC (Pen at 3; D-Thr at 8; Sar at 9; NMeLeu at 10; disulfide; C-terminal amide) [Peptide No. 240] are 4.8 µM and 71 µM.
The corresponding values for RFXTGHFLGLYPC (Pen at 3; D-Leu at 8; Sar at 9; NMeLeu at 10; disulfide; C-terminal amide) [Peptide No. 219] are 0.47 µM and 4 µM.
The corresponding values for RFXTGHFEGLYPC (Pen at 3; D-Glu at 8; Sar at 9; NMeLeu at 10; disulfide; C-terminal amide) [Peptide No. 244] are 0.58 µM and 6.4 µM.

B1: Peptide No. 169 (peptide)
peptide: QRFVTGHFG[dP]LYPINGP-NH2
modifications: N-terminus assumed
SMILES: CC[C@H](C)[C@H](NC(=O)[C@@H]1CCCN1C(=O)[C@H](Cc1ccc(O)cc1)NC(=O)[C@H](CC(C)C)NC(=O)[C@H]1CCCN1C(=O)CNC(=O)[C@H](Cc1ccccc1)NC(=O)[C@H](Cc1c[nH]cn1)NC(=O)CNC(=O)[C@@H](NC(=O)[C@@H](NC(=O)[C@H](Cc1ccccc1)NC(=O)[C@H](CCCNC(=N)N)NC(=O)[C@@H](N)CCC(N)=O)C(C)C)[C@@H](C)O)C(=O)N[C@@H](CC(N)=O)C(=O)NCC(=O)N1CCC[C@H]1C(N)=O
As for B1, the equilibrium dissociation constant (Kd) with soluble human FcRn [8] is 15 µM. In the assay with soluble human FcRn [9], this molecule returned a 50% inhibitory concentration (IC50) of 72 µM.
In the case of TGHFGGLYP-NH2 [SEQ ID NO:20], the IC50 with soluble human FcRn [3] is above 250 µM.
In the case of QRFCTGHFGGLYPCN-NH2 (disulfide 4-14 (inferred)) [SEQ ID NO:24], the Kd in the assay with soluble human FcRn [1] came out at 6.1 µM; with soluble human FcRn [2], 73 µM.
In the assay with soluble human FcRn [2], QRFCTGHFGGLYPC-NH2 (disulfide 4-14 (inferred)) [SEQ ID NO:18] registered a Kd of 26 µM.

B2: Peptide No. 211 (peptide)
peptide: FVTGHFG[dP]WYPA-NH2
modifications: N-terminus assumed
SMILES: CC(C)[C@H](NC(=O)[C@@H](N)Cc1ccccc1)C(=O)N[C@H](C(=O)NCC(=O)N[C@@H](Cc1c[nH]cn1)C(=O)N[C@@H](Cc1ccccc1)C(=O)NCC(=O)N1CCC[C@@H]1C(=O)N[C@@H](Cc1c[nH]c2ccccc12)C(=O)N[C@@H](Cc1ccc(O)cc1)C(=O)N1CCC[C@H]1C(=O)N[C@@H](C)C(N)=O)[C@@H](C)O
In the case of B2, in the assay with soluble human FcRn [8], the Kd stood at 8 µM. In the assay with soluble human FcRn [9], this molecule came in with an IC50 of 100 µM.

B3: Peptide No. 101 (peptide)
peptide: QRF[Pen]TGHFGGIYPCNGP-NH2
modifications: disulfide 4-14; N-terminus assumed
SMILES: CC[C@H](C)[C@@H]1NC(=O)CNC(=O)CNC(=O)[C@H](Cc2ccccc2)NC(=O)[C@H](Cc2c[nH]cn2)NC(=O)CNC(=O)[C@H]([C@@H](C)O)NC(=O)[C@@H](NC(=O)[C@H](Cc2ccccc2)NC(=O)[C@H](CCCNC(=N)N)NC(=O)[C@@H](N)CCC(N)=O)C(C)(C)SSC[C@@H](C(=O)N[C@@H](CC(N)=O)C(=O)NCC(=O)N2CCC[C@H]2C(N)=O)NC(=O)[C@@H]2CCCN2C(=O)[C@H](Cc2ccc(O)cc2)NC1=O
In the assay with soluble human FcRn [6], B3 displayed a dissociation constant (Kd) of 0.34 µM. Also, the IC50 with soluble human FcRn [7] was found to be 3.4 µM.

B4: Peptide No. 115 (peptide)
peptide: QRF[Pen]TGHFGGFYPCNGP-NH2
modifications: disulfide 4-14; N-terminus assumed
SMILES: C[C@@H](O)[C@@H]1NC(=O)[C@@H](NC(=O)[C@H](Cc2ccccc2)NC(=O)[C@H](CCCNC(=N)N)NC(=O)[C@@H](N)CCC(N)=O)C(C)(C)SSC[C@@H](C(=O)N[C@@H](CC(N)=O)C(=O)NCC(=O)N2CCC[C@H]2C(N)=O)NC(=O)[C@@H]2CCCN2C(=O)[C@H](Cc2ccc(O)cc2)NC(=O)[C@H](Cc2ccccc2)NC(=O)CNC(=O)CNC(=O)[C@H](Cc2ccccc2)NC(=O)[C@H](Cc2c[nH]cn2)NC(=O)CNC1=O
On to B4, for which the Kd with soluble human FcRn [6] turned out to be 0.4 µM. The IC50 with soluble human FcRn [7] came out at 4.1 µM.
In the case of QRFXTGHFGGWYPCNGP (Pen at 4; Sar at 10; disulfide; C-terminal amide) [Peptide No. 238], in the assay with soluble human FcRn [7], the IC50 amounted to 1 µM.
For the molecule QRFSTGHFGGLYPSNGP-NH2 [Peptide No. 71], in the assay with soluble human FcRn [8], the affinity, expressed as Kd, was 230 µM. Moreover, in the assay with soluble human FcRn [9], the half-inhibitory concentration (IC50) was above 125 µM.

B5: Peptide No. 246 (peptide)
peptide: RFVTGHFG[dP]WYPA-NH2
modifications: N-terminus assumed
SMILES: CC(C)[C@H](NC(=O)[C@H](Cc1ccccc1)NC(=O)[C@@H](N)CCCNC(=N)N)C(=O)N[C@H](C(=O)NCC(=O)N[C@@H](Cc1c[nH]cn1)C(=O)N[C@@H](Cc1ccccc1)C(=O)NCC(=O)N1CCC[C@@H]1C(=O)N[C@@H](Cc1c[nH]c2ccccc12)C(=O)N[C@@H](Cc1ccc(O)cc1)C(=O)N1CCC[C@H]1C(=O)N[C@@H](C)C(N)=O)[C@@H](C)O
In the assay with soluble human FcRn [8], B5 registered a dissociation constant Kd of 3.6 µM. In the assay with soluble human FcRn [9], this molecule came in with an IC50 of 60 µM.
In the assay with soluble human FcRn [1], FCTGHFGGLYPCNGP-NH2 (disulfide 2-12 (inferred)) [SEQ ID NO:22] displayed a Kd of 11 µM. The molecule further had a half-inhibitory concentration (IC50) with soluble human FcRn [3] of 67 µM.
Molecule QAFCTGHFGGLYPCNGP-NH2 (disulfide 4-14 (inferred)) [SEQ ID NO:25] registered a Kd with soluble human FcRn [10] of 7.7 µM. The molecule further yielded a half-inhibitory concentration (IC50) with soluble human FcRn [11] of 23 µM.
The corresponding values for QRACTGHFGGLYPCNGP-NH2 (disulfide 4-14 (inferred)) [SEQ ID NO:26] are 28 µM and 95 µM.
The corresponding values for QRFCTGHFGGLYPCAGP-NH2 (disulfide 4-14 (inferred)) [SEQ ID NO:36] are 8 µM and 30 µM.
Turning to QRFCAGHFGGLYPCNGP-NH2 (disulfide 4-14 (inferred)) [SEQ ID NO:27], binding with soluble human FcRn [10] was put at a Kd of 4.9 µM. Moreover, the concentration for half-maximal inhibition (IC50) with soluble human FcRn [11] is 30 µM.
In the assay with soluble human FcRn [1], CTGHFGGLYPCNGP-NH2 (disulfide 1-11 (inferred)) [SEQ ID NO:17] returned a Kd of 34 µM. In the assay with soluble human FcRn [3], this molecule gave an IC50 of 239 µM.

The record behind these values is patent US20070254831A1 (published 2007).
